Source: patent publication US20240158510A1 (GOVERNING COUNCIL OF THE UNIVERSITY OF TORONTO, published 2024)
Residue numbers refer to the chain shown, from its start. Like-named read-outs stand apart in the source and are kept apart here. One block for each binder: values may come before it.

Legend:
[1] = target: T1, integrin αvβ1 expressed on CHO cells (UniProt P06756 31-1048; P05556 21-798, limits assumed); assay: flow cytometry titration on integrin-expressing CHO cells
T1 construct: whole, on cells; also called CHO AvB1; AvB1 CHO cells
Method: (§1) Adherent cells were brought into suspension using PBS supplemented with 10 mM ethylenediaminetetraacetic acid (EDTA). The cells were washed with PBS, resuspended in PBS supplemented with 1% BSA, and incubated for 15 minutes at 4° C. The cells were labelled with 50 μl of Fab-phage culture supernatant, or 500 nM Fab, or IgG for 30 minutes at 4° C., then washed with PBS and resuspended in PBS supplemented with 1% BSA. Next, the cells were labelled with anti-Fab (for Fab-phage), or anti-Flag (for Fabs) or anti-Fc (for IgGs) conjugated Alexa-488 secondary Ab according to manufacturer's instructions. Data were collected using a CytoFLEX-S flow-cytometer using a 488-nm laser with 530/25 nm filter settings. The cells were analyzed in PBS, and all acquired live events were greater than 10,000 cells per sample. Quantitation analysis was carried out using FlowJo v10.2 Software. For Ab cellular titration analysis, the Abs were added to antigen positive cells in duplicate samples from a range of 500 pM to 1 μM. The mean fluorescence signal values were subtracted from the control antigen negative cells signals, and EC50 determined using Graph-pad Prism, where x is the Fab concentration: […]

[2] = target: T2, integrin αvβ5 expressed on CHO cells (UniProt P06756 31-1048; P18084 24-799, limits assumed); assay: as above
T2 construct: whole, on cells
Method: as §1

[3] = target: T3, integrin αvβ6 expressed on CHO cells (UniProt P06756 31-1048; P18564 22-788, limits assumed); assay: as above
T3 construct: whole, on cells
Method: as §1

[4] = target: T4, integrin αvβ3 expressed on CHO cells (UniProt P06756 31-1048; P05106 27-788, limits assumed); assay: as above
T4 construct: whole, on cells
Method: as §1

[5] = target: T5, integrin αvβ8 expressed on CHO cells (UniProt P06756 31-1048; P26012 43-769, limits assumed); assay: as above
T5 construct: whole, on cells
T5 sequence (P06756 31-1048 limits assumed, chain 1 of 2): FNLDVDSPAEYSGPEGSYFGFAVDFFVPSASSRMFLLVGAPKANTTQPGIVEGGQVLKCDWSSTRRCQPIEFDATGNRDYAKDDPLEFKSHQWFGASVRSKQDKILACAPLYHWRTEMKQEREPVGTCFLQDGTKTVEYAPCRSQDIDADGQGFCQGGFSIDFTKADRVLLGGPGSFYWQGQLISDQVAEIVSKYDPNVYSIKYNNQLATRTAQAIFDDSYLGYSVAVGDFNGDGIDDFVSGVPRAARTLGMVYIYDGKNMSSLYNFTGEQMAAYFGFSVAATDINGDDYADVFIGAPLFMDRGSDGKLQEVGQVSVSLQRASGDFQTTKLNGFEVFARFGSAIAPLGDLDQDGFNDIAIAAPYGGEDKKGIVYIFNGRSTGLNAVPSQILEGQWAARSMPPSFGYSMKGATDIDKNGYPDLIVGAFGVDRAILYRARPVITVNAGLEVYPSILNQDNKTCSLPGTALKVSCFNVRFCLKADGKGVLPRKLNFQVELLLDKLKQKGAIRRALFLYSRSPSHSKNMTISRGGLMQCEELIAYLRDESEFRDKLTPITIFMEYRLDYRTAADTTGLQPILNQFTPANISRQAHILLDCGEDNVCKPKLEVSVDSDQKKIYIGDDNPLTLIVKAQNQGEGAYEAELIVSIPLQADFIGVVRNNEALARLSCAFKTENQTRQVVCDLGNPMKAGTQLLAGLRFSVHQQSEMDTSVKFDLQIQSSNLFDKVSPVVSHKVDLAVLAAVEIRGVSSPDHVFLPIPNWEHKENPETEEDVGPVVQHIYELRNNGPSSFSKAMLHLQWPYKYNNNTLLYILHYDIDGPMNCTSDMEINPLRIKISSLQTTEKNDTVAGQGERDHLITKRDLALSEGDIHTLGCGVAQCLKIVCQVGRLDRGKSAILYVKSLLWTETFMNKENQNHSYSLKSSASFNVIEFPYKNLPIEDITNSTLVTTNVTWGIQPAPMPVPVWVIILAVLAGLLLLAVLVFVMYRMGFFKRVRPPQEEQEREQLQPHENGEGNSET
T5 sequence (P26012 43-769 limits assumed, chain 2 of 2): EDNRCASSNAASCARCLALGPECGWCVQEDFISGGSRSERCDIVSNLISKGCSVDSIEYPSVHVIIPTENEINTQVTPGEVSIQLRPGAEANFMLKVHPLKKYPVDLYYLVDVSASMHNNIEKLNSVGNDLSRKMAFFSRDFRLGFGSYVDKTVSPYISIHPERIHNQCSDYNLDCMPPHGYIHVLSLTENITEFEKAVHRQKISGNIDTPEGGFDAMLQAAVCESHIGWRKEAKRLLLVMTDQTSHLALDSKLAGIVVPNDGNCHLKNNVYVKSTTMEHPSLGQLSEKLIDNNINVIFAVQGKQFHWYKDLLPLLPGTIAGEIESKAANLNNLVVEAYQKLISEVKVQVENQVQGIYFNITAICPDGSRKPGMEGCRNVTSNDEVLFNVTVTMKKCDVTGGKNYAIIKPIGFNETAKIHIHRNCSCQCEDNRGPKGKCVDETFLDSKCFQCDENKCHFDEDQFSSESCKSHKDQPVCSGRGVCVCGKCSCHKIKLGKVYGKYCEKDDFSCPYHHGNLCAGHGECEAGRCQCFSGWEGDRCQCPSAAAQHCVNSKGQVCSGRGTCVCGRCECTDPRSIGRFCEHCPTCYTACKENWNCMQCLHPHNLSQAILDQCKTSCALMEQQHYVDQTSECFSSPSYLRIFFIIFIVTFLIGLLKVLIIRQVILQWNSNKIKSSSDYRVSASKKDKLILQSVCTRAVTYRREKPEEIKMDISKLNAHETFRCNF
Method: as §1

[6] = target: T3, integrin αvβ6 expressed on CHO cells; assay: flow cytometry titration on AvB6 CHO cells
Method: as §1

[7] = target: T4, integrin αvβ3 expressed on CHO cells; assay: flow cytometry titration on AvB3 CHO cells
Method: as §1

[8] = target: T1, integrin αvβ1 expressed on CHO cells; assay: flow cytometry titration on AvB1 CHO cells
Method: as §1

[9] = target: T1, integrin αvβ1 expressed on CHO cells; assay: cell-based or functional assay
[10] = target: T4, integrin αvβ3 expressed on CHO cells; assay: cell-based or functional assay
[11] = target: T6, recombinant human integrin-αvβ1 (human, UniProt P06756 31-992; P05556 21-728, limits assumed); assay: IgG titration on recombinant human integrin αvβ1, one site-total fit; assay format not stated; parameters: Bmax: unit not given here
T6 construct: also called Recombinant Human Integrins
T6 sequence (P06756 31-992 limits assumed, chain 1 of 2): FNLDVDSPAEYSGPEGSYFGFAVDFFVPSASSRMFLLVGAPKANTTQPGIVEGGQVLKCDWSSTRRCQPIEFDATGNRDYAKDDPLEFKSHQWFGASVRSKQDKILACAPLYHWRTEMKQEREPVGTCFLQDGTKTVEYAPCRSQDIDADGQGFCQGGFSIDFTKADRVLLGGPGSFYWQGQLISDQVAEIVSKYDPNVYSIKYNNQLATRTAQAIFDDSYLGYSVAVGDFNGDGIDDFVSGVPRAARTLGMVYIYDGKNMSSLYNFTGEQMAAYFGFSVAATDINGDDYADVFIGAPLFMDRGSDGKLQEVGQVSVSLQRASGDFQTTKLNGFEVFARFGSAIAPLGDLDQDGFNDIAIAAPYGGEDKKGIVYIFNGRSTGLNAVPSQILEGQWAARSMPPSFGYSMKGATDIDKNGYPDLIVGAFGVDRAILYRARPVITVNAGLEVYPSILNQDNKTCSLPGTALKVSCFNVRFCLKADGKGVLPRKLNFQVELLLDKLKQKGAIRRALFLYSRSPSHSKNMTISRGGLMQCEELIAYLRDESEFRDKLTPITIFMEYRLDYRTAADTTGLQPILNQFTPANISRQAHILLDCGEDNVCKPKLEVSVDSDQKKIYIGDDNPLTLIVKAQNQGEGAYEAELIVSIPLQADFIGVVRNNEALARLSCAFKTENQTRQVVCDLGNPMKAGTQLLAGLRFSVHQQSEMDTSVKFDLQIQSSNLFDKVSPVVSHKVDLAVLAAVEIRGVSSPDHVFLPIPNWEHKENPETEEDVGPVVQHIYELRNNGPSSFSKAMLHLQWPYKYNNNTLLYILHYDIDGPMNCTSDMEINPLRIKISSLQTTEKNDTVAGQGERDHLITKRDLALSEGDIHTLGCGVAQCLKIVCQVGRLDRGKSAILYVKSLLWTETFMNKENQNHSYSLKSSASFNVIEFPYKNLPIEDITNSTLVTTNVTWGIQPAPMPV
T6 sequence (P05556 21-728 limits assumed, chain 2 of 2): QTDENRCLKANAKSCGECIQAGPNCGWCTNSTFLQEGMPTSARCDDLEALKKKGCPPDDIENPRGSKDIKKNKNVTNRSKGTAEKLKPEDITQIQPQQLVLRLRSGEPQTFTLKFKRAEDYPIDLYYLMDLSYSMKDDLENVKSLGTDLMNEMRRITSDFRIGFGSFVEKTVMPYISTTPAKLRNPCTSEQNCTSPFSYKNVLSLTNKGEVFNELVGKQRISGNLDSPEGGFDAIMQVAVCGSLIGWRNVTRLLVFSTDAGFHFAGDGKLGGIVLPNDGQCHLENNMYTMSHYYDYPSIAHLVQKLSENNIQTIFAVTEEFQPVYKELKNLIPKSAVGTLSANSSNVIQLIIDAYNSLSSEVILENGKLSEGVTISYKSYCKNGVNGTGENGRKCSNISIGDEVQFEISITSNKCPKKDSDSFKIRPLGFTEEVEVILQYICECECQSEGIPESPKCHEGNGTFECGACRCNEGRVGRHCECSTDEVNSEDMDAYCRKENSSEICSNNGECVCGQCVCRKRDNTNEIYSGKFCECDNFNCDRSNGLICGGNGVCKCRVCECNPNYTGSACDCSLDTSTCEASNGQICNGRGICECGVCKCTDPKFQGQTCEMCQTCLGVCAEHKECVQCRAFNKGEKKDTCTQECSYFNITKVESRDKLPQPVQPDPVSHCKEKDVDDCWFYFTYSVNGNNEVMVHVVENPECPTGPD

[12] = target: T1, integrin αvβ1 expressed on CHO cells; assay: cell-based or functional assay; remark: listed apart in the source
[13] = target: T2, integrin αvβ5 expressed on CHO cells; assay: cell-based or functional assay
[14] = target: T3, integrin αvβ6 expressed on CHO cells; assay: cell-based or functional assay
[15] = target: T4, integrin αvβ3 expressed on CHO cells; assay: cell-based or functional assay; remark: listed apart in the source
[16] = target: T5, integrin αvβ8 expressed on CHO cells; assay: cell-based or functional assay
[17] = target: T5, integrin αvβ8 expressed on CHO cells; assay: flow cytometry titration on AvB8 CHO cells
Method: as §1

[18] = target: T1, integrin αvβ1 expressed on CHO cells; assay: cell-based or functional assay; remark: listed apart in the source
[19] = target: T2, integrin αvβ5 expressed on CHO cells; assay: flow cytometry titration on AvB5 CHO cells
Method: as §1

[20] = target: T7, recombinant mouse integrin-αvβ1 (mouse, UniProt P43406 31-988; P09055 21-728, limits assumed); assay: IgG titration on recombinant mouse integrin αvβ1, one site-total fit; assay format not stated
T7 construct: also called Recombinant Mouse Integrins
T7 sequence (P43406 31-988 limits assumed, chain 1 of 2): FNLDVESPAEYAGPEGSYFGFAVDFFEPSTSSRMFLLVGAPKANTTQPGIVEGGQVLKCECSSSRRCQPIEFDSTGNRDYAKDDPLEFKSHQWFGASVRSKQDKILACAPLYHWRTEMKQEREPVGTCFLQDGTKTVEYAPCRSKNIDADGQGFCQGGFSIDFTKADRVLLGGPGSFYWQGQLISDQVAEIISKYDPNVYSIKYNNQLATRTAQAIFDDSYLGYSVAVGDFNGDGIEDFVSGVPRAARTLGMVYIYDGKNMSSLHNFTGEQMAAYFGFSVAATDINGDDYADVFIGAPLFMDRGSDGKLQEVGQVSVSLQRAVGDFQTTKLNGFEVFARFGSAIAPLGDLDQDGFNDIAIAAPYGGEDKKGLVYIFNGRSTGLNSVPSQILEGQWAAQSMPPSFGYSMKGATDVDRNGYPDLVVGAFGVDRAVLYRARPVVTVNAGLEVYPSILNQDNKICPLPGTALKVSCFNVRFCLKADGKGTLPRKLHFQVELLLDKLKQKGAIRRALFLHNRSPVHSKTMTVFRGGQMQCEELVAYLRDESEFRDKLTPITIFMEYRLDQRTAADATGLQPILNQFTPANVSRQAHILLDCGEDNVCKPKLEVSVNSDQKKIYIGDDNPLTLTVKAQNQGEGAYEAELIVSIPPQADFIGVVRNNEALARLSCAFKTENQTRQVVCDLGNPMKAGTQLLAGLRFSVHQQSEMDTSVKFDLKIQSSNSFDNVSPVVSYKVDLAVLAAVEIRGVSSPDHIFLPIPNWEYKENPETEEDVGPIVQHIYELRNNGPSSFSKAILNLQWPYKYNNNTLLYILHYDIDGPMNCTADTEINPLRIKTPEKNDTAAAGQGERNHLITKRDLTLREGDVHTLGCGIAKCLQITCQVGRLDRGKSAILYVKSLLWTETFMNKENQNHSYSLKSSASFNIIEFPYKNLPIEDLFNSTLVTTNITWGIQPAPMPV
T7 sequence (P09055 21-728 limits assumed, chain 2 of 2): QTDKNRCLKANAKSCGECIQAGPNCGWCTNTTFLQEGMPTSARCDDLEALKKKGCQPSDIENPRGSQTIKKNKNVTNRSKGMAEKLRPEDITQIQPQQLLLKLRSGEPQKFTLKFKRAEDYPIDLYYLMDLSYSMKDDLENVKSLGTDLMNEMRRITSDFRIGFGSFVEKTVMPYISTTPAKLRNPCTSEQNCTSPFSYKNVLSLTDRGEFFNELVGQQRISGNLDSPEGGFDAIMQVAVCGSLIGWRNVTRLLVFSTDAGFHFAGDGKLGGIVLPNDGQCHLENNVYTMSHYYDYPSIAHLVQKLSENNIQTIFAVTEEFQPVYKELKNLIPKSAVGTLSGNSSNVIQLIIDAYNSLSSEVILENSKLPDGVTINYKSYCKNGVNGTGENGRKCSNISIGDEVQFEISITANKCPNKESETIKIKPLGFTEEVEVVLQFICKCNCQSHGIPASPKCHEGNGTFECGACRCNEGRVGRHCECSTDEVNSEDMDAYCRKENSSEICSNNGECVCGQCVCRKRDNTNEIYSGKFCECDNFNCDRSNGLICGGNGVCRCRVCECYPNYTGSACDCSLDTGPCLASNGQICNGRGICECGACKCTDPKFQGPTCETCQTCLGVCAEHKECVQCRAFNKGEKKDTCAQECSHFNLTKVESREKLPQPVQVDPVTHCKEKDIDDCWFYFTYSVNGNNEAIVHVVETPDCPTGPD

[21] = target: T2, integrin αvβ5 expressed on CHO cells; assay: cell-based or functional assay; remark: listed apart in the source
[22] = target: T5, integrin αvβ8 expressed on CHO cells; assay: cell-based or functional assay; remark: listed apart in the source

EC50 [1]: 2.72 nM
EC50 [2]: 3.4 nM
EC50 [3]: 3.26 nM
EC50 [4]: 14.8 nM
EC50 [5]: 11.4 nM
EC50 [6]: 3.7 nM
EC50 [7]: 9.9 nM
EC50 [8]: 3 nM
IC50, inhibition of CHO cell adhesion to LAP-TGFβ [9]: < 1 nM
IC50, inhibition of CHO cell adhesion to LAP-TGFβ [10]: 45 nM
Bmax [11]: 0.412
Kd [11]: 0.421 nM
IC50, inhibition of CHO cell adhesion to LAP-TGFβ [12]: 5 nM
IC50, inhibition of CHO cell adhesion to LAP-TGFβ [13]: 0.7 nM
IC50, inhibition of CHO cell adhesion to LAP-TGFβ [14]: 1.4 nM
IC50, inhibition of CHO cell adhesion to LAP-TGFβ [15]: 1.2 nM
IC50, inhibition of CHO cell adhesion to LAP-TGFβ [16]: 1.3 nM
EC50 [17]: 11.6 nM
adhesion of integrin-αvβ1 CHO cells to LAP-TGFβ, normalised confluence, number over the bar, untreated = 100 [18]: 61.2%
EC50 [19]: 1.3 nM
Bmax [20]: 0.412
Kd [20]: 0.421 nM
B1: IgG clone 10392, hG1/hk (pSCSTa-hG1 (10392) heavy chain, pSCSTa-hK (10392) light chain) (antibody, V domains shown)
VH: EVQLVESGGGLVQPGGSLRLSCAASGFNIYYSSIHWVRQAPGKGLEWVASISSSSGSTSTYADSVKGRFTISADTSKNTAYLQMNSLRAEDTAVYYCARSYYGGGYPYALDYWGQGTLVTVSS
VL: DIQMTQSPSSLSASVGDRVTITCRASQSVSSAVAWYQQKPGKAPKLLIYSASSLYSGVPSRFSGSRSGTDFTLTISSLQPEDFATYYCQQYFGGLITFGQGTKVEIKR
notes: Full-length human IgG1/kappa made in Expi293 cells

Bmax [11]: 0.85
Kd [11]: 0.842 nM
Bmax [20]: 0.85
Kd [20]: 0.842 nM
B2: 10392 hG4/hk (antibody, human IgG4, V domains shown)
VH: B1 VH
VL: B1 VL
notes: not shown: human IgG4 constant region ('hG4')

Bmax [11]: 1.09
Kd [11]: 0.244 nM
Bmax [20]: 1.09
Kd [20]: 0.244 nM
B3: 10404 hG1 LALA PG/hk (antibody, V domains shown)
VH: EVQLVESGGGLVQPGGSLRLSCAASGFNLYSSSIHWVRQAPGKGLEWVAYIYPSYGYTSTYADSVKGRFTISADTSKNTAYLQMNSLRAEDTAVYYCARPAPYYSWYPAMDYWGQGTLVTVSS
VL: B1 VL with Y91A, F92S, G94S, L95P, I96F
notes: not shown: human IgG1 constant region with 'LALA PG' changes

Bmax [11]: 0.782
Kd [11]: 0.358 nM
Bmax [20]: 0.782
Kd [20]: 0.358 nM
B4: 10404 hG4/hk (antibody, V domains shown)
VH: B3 VH
VL: B1 VL with Y91A, F92S, G94S, L95P, I96F
notes: the IgG4 constant region used is not specified; not shown: human IgG4 constant region ('hG4')

Bmax [11]: 0.555
Kd [11]: 0.411 nM
Bmax [20]: 0.555
Kd [20]: 0.411 nM
B5: 10392 hG1 LALA PG/hk (antibody, human IgG1, V domains shown)
VH: B1 VH
VL: B1 VL
notes: as for B3

EC50 [1]: 2.43 nM
EC50 [2]: 2.45 nM
EC50 [3]: 2.96 nM
EC50 [4]: 13.1 nM
EC50 [5]: 14.3 nM
IC50, inhibition of CHO cell adhesion to LAP-TGFβ [9]: 13.2 nM
IC50, inhibition of CHO cell adhesion to LAP-TGFβ [21]: 3.64 nM
IC50, inhibition of CHO cell adhesion to LAP-TGFβ [10]: 23.8 nM
IC50, inhibition of CHO cell adhesion to LAP-TGFβ [22]: < 1 nM
Bmax [11]: 1.09
Kd [11]: 0.271 nM
adhesion of integrin-αvβ1 CHO cells to LAP-TGFβ, normalised confluence, number over the bar, untreated = 100 [18]: 46.2%
Bmax [20]: 1.09
B6: IgG clone 10404, hG1/hk (pSCSTa-hG1 (10404) heavy chain, pSCSTa-hK (10404) light chain) (antibody, V domains shown)
VH: B3 VH
VL: B1 VL with Y91A, F92S, G94S, L95P, I96F
notes: as for B1

EC50 [6]: 2.5 nM
EC50 [7]: 15.9 nM
EC50 [8]: 2.4 nM
IC50, inhibition of CHO cell adhesion to LAP-TGFβ [12]: 3.2 nM
IC50, inhibition of CHO cell adhesion to LAP-TGFβ [13]: 4.1 nM
IC50, inhibition of CHO cell adhesion to LAP-TGFβ [14]: 6.1 nM
IC50, inhibition of CHO cell adhesion to LAP-TGFβ [15]: 7.5 nM
IC50, inhibition of CHO cell adhesion to LAP-TGFβ [16]: 2.5 nM
EC50 [17]: 6.4 nM
EC50 [19]: 1.2 nM
B7: Bi-IgG 11867/10392 (bispecific antibody)
heavy chain 10392, knob: EVQLVESGGGLVQPGGSLRLSCAASGFNIYYSSIHWVRQAPGKGLEWVASISSSSGSTSYADSVKGRFTISADTSKNTAYLQMNSLRAEDTAVYYCARSYYGGGYPYALDYWGQGTLVTVSSASTKGPSVFPLAPSSKSTSGGTAALGCLVKDYFPEPVTVSWNSGALTSGVHTFPAVLQSSGLYSLSSVVTVPSSSLGTQTYICNVNHKPSNTKVDKKVEPKSCDKTHTCPPCPAPELLGGPSVFLFPPKPKDTLMISRTPEVTCVVVDVSHEDPEVKFNWYVDGVEVHNAKTKPREEQYNSTYRVVSVLTVLHQDWLNGKEYKCKVSNKALPAPIEKTISKAKGQPREPMVFDLPPSREEMTKNQVSLWCMVKGFYPSDIAVEWESNGQPENNYKTTPPVLDSDGSFFLYSKLTVDKSRWQQGNVFSCSVMHEALHNHYTQKSLSLSPGK
heavy chain 11867, hole: EVQLVESGGGLVQPGGSLRLSCAASGFDFDSYAIHWVRQAPGKGLEWVAYFYPGHDYSTYADSVKGRFTISADTSKNTAYLQMNSLRAEDTAVYYCARPSPYFSWHQAMDYWGQGTLVTVSSASTKGPSVFPLAPSSKSTSGGTAALGCLVKDYFPEPVTVSWNSGALTSGVHTFPAVLQSSGLYSLSSVVTVPSSSLGTQTYICNVNHKPSNTKVDKKVEPKSCDKTHTCPPCPAPELLGGPSVFLFPPKPKDTLMISRTPEVTCVVVDVSHEDPEVKFNWYVDGVEVHNAKTKPREEQYNSTYRVVSVLTVLHQDWLNGKEYKCKVSNKALPAPIEKTISKAKGQPREPQVYTLPPIRELMTSNQVSLSCAVKGFYPSDIAVEWESNGQPENNYKTTPPVLDSDGSFFLVSKLTVDKSRWQQGNVFSCSVMHEALHNHYTQKSLSLSPGK
light chain 11867: DIQMTQSPSSLSASVGDRVTITCRASQSVSSAVAWYQQKPGKAPKLLIYSASSLYSGVPSRFSGSRSGTDFTLTISSLQPEDFATYYCQQATGSEVTFGQGTKVEIKRTVAAPSVFIFPPSDEQLKSGTASVVCLLNNFYPREAKVQWKVDNALQSGNSQESVTEQDSKDSTYSLSSTLTLSKADYEKHKVYACEVTHQGLSSPVTKSFNRGEC
